Assay results as given in the RNAGym collection of RNA variant scans (doi:10.1073/pnas.2313332121).
Variants at the floor of the assay were thinned out.

B1: TPR 5TU (parent)
chain: GGAUCUUCUCGAUCUAACAAAAAAGACAAAUCUGCCACAAAGCUUGAGAGCAUCUUCGGAUGCAGAGGCGGCAGCCUUCGGUGGCGCGAUAGCGCCAACGUUCUCAACUAUGACACGCAAAACGCGUGCUCCGUUGAAUGGAGUUUAUCAUG

Variants of: B1
Assay: polymerase ribozyme fitness, log enrichment relative to wild type (log ratio); higher = more active; in vitro selection for triplet polymerase activity
Procedure, shortened: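 Fitness is a logarithmic measure of how a genotype enriched relative to the wild type, with replicate averages weighted by inverse variance. The logarithm uses base 2, and enrichment came from Illumina sequencing of input and output libraries. Those libraries were PCR-built, transcribed mutants of each subunit of a heterodimeric triplet polymerase ribozyme, passed through one triplicate in vitro selection round that included frozen incubation at −7 °C, gel excision of extended constructs and streptavidin-bead capture. Genotypes were kept only if they had ≥10 input reads and ≥1 read per output.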

Variant | polymerase ribozyme fitness (log ratio)
G141C | -0.0848
G141U | 1.61
G141A | 0.689
A138U U151C | -4.01
U148G U151A | -3.95
U134A G141U | -2.41
G133A G141U | -3.08
U135G U144G | -2.41
G141A U144C | -3.08
C132A | -2.06
C132U | -0.687
C132G | -3.15
U134A A142C | -2.66
U134A A142G | -3.04
G140U U146C | -3.33
G140U U146G | -3.88
U134C A142C | -0.0581
A137U G141U | -3.93
A137U G141A | -3.24
A137U G143U | -3.39
U151C | -2.78
U151G | -3.49
U151A | -3.44
C132U G152U | -2.75

Variant | polymerase ribozyme fitness (log ratio)
U135A A147U | -0.75
U139C U144A | -3.36
G143A U151G | ≤ -4.2
G133A U134G | -2.81
U134A A137G | -3.22
A137G U144A | -3.01
U144C A150C | -4.19
C132U U135A | -2.46
A137C | -3.09
A137U | -3.39
A137G | -1.15
G141U A142C | -3.58
A137G U145G | -1.02
G141C A150G | -3.78
A150C | -2.71
A150G | -0.734
A150U | 1.3
G140A U144A | -3.68
A142G A147U | -0.49
C132U C149G | -3.84
G140U | -2.62
G140A | -2.67
G140C | -3.16
G136A A147G | -1.36

Variant | polymerase ribozyme fitness (log ratio)
U139A G143U U146G | -3.74
U146G A150C | ≤ -4.2
G136C U151G | ≤ -4.2
C131G G136U G141U G143U | ≤ -4.2
U146G A150G G152A | -1.84
A150C G152A | -3
C132U A150G | -2.47
U135G A137U | -4.04
C131U U144G | -0.864
A138U G141C | -3.88
U146C | 0.00807
U146G | -0.513
U146A | -0.305
U135A G136C | -4.14
G140A G143U | ≤ -4.2
U135A G143A A147G | ≤ -4.2
A138U A147U | -3.38
A137U U148G | ≤ -4.2
C149U | -0.847
C149G | -2.78
C149A | -3.33
A137C A138G | -3.68
U144G U145A | 0.571
G141U G143A | -2.79

Variant | polymerase ribozyme fitness (log ratio)
G136U U144G | -3.29
U145C U146G | 0.121
U135G G141U U146G | ≤ -4.2
G140U A147U | -2.9
U135A C149U | -0.66
U139A U144A | -4.15
U139G A150C | -3.84
G143C U145G | -1.8
C131G A137U | -4.16
C131U | 1.18
U139G U148A | -2.73
U134A U148G | ≤ -4.2
G141A C149G | -4.13
A142C U144A U148G | ≤ -4.2
A138C | -3.67
A138U | -3.87
A138G | -1.9
C131G G133C G136U G141U | -3.43
A138C U139A | -3.78
A142G U146C | -3.25
U145G U151G | -4.07
